From paper PMC7669825, “Escherichia coli RelA Regulation via Its C-Terminal Domain” (Frontiers in Microbiology, 2020)

Legend:
[1] = target: T1, RelA (Escherichia coli, full length, His-tagged) (Escherichia coli, UniProt P0AG20 1-744); test: cross-linking; 10 ul with 12.5 mM Na phosphate pH 7.2, 12.5 mM NaCl, 2.5% glycerol, 1 x 10^-3% glutaraldehyde, 4 ug of protein; 15 min on ice; SDS-PAGE and Western blot with anti-His antibody; conditions: both partners purified
T1 construct: RelA, (p)ppGpp synthetase of Escherichia coli, 84 kDa, 744 AA (NTD AAs 1-455, CTD AAs 405-744); also called WT RelA; WT-RelA; source: E. coli CF9467 (pQE30-relA), purified (Ni-NTA agarose); not shown: His6, N-terminal, kept
T1 sequence (looked up): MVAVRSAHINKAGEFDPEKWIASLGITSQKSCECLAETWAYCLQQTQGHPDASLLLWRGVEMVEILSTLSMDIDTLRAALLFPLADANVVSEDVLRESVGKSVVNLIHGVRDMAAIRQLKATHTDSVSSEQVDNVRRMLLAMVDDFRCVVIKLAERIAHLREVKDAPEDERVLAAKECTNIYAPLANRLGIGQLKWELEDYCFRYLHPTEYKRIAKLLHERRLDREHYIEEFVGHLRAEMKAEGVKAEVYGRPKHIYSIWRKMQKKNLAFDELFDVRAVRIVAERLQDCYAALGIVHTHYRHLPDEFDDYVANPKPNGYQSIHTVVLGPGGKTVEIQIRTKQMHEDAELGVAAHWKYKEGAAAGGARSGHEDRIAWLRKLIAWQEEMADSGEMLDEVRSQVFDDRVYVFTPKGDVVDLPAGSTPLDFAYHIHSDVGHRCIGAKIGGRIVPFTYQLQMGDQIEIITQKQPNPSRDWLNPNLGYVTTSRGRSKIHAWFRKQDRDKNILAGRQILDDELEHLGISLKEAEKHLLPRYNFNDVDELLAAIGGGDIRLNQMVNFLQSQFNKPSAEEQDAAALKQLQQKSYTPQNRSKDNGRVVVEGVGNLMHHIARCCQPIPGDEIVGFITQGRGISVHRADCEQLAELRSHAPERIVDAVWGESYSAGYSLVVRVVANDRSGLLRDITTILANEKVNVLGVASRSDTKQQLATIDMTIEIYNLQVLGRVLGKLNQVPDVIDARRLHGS

[2] = target: the molecule itself; test: as above

binding result [1]: binds
B1: YG4 (fragment of the RelA C-terminal domain, AA 564-744, His-tagged) (domain or fragment, Escherichia coli, UniProt P0AG20 564-744, looked up)
chain: FNKPSAEEQDAAALKQLQQKSYTPQNRSKDNGRVVVEGVGNLMHHIARCCQPIPGDEIVGFITQGRGISVHRADCEQLAELRSHAPERIVDAVWGESYSAGYSLVVRVVANDRSGLLRDITTILANEKVNVLGVASRSDTKQQLATIDMTIEIYNLQVLGRVLGKLNQVPDVIDARRLHGS
notes: RelA of Escherichia coli, AA 564-744 (MW 21 kDa); holds the RIS domain (AA 585-660) and the ACT domain (AA 665-744); also called native YG4; WT-YG4; source: E. coli CF9467 (pYG4), purified (Ni-NTA agarose); not shown: His6, N-terminal, kept
binding result [2]: binds
